Data on one substance can be found in article PMC11510448.

Test [1] concerns the target human Cu/Zn Superoxide Dismutase 1, A4V variant (Flag-SOD1-6His) (human) (UniProt P00441). Nature of the test: native gel or EMSA; Native-PAGE of selected gel filtration fractions, SDS-free 10% gel, samples not boiled, run at RT, Coomassie stain; ESTDZ2 (ca. 28 kDa) as size standard.
Test [2] has the same target. Kind of test: SEC; gel filtration of the Ni-NTA eluate on a custom-made calibrated Sephacryl S-200 column (1.2 x 100 cm), TBS pH 7.4, UV detection at 280 nm.

With “human Cu/Zn Superoxide Dismutase 1, A4V variant (Flag-SOD1-6His) (from UniProt P00441 6-154) (enzyme)”, the stoichiometry N in test [1] and in test [2] was 2 each time.
